According to patent publication US12194082B2, “Compositions and methods for treatment of homocystinuria” (THE REGENTS OF THE UNIVERSITY OF COLORADO, priority 2016, dated 2025):
Values joined by “and” are separate entries in the source; they are usually repeats but may differ in a detail not shown here. Equal values may be shown once.

Tests used:
[1] = Pharmacokinetics of PEGylated htCBS C15S in HO mice (plasma CBS activity); assay type: in vivo
Experimental: For 20NHS PEG-htCBS C15S, HO mice were administered SQ a dose of 5, 10 or 15 mg/kg dose or were administered IV a dose of 10 mg/kg. For 400MA-htCBS C15S, HO mice received a single dose of 10 mg/kg either SC or IV of one of the three forms: (i) a mixture of all species, where no separation of individual forms has been attempted (mix), (ii) a homoPEGylated specie (Peak 1), and (iii) a hetero/hemiPEGylated species (Peak 2).
Both male and female HO mice were used in this example, and each group contained 3 to 4 mice. Two groups of mice designated “A” and “B” were used for each route of administration to minimize the blood volume taken from any one mouse. For SC administration, blood was collected from group A at 0.5, 3, 24, and 72 hours post-injection and from group B at 1, 6, 48, and 96 hours post-injection. For IV administration, blood was collected from group A at 0.25, 1, 6, and 48 hours post-injection and from group B at 0.5, 3, 24, and 72 hours post-injection.

[2] = test system: KO mice; experiment: DEXA bone mineralization and body composition in KO mice; assay type: in vivo, mouse; settings: 7.5 mg/kg SC 3x/week from day 2 to about 5 months
Experimental: A PIXImusII DEXA scanner (GE Lunar Medical Systems) specifically designed for scanning small animals such as mice was used for DEXA analysis. This machine enabled quick and efficient determination of the body composition (lean, fat mass, and bone density) of a mouse before terminal tissue extraction procedures. Mice were fasted for 4 hours prior to the DEXA measurement to remove food from the gastro-intestinal tract. Mice were then anesthetized using IP bolus injection of 60 mg/kg ketamine and 15 mg/kg xylazine and placed on a tray in the DEXA machine. After the measurement was done (3˜5 minutes), the mice were removed from the DEXA machine and used in terminal procedures, such as tissue extractions.
The bone mineral density (BMD) and bone mineral content (BMC) were analyzed by DEXA for three groups of mice: +/− healthy heterozygous controls (n=4M+6F), affected KO controls (n=5M+13F), and 20NHS PEG-htCBS C15S (C15S/ME-200GS)-treated KO mice (n=6M+15F). The 20NHS PEG-htCBS C15S-treated mice were administered 7.5 mg/kg subcutaneously (SC) three times a week from day 2 to about 5 months. All −/− KO mice were treated for the initial 5 W (from 2 to 35 days of age) to prevent neonatal lethality.

[3] = rat, in vivo, sc
Experimental: (§1) CBS activity was determined by a radioisotope assay with C^14-labeled serine as a substrate. Ten μl (total 490 ng) of pure htCBS in dilution buffer (0.1 M Tris-HCl pH=8.6, 1 mM DTT, 10 μM PLP, 0.5 mg/ml BSA) or 10 μl of plasma were added to 85 μl of reaction mixture containing 0.1 M Tris-HCl pH=8.6, 10 mM L-serine, 0.5 mM PLP, 0.5 mg/ml BSA and 0.3 μCi (for pure enzyme) or 0.45 μCi (for plasma) of L-[C^14(U)]-Serine. Samples were incubated for 5 min at 37° C. and reaction was initiated by addition of 5 μl of 0.2 M Hcy (10 mM final concentration). Following 30 min of incubation at 37° C., a 20 μl aliquot of the assay mixture was applied onto a grade 3 CHR Whatman (NJ, USA) paper. Assay initiation and sampling of the resulting mixture were staggered so that each reaction time was 30 minutes. Descending paper chromatography was used to isolate the radioactive product (Cth) from a labeled substrate (Ser). The C^14-cystathionine formed in the reaction was separated from C^14-serine by an overnight descending paper chromatography in 2-propanol/formic acid/H2O (75:5.7:18.9 v/v). Radioactivity in the area of the marker cystathionine (detected by staining the marker lane with ninhydrin) was determined by cutting the chromatogram into strips that were submerged in 5 ml of Opti-fluor scintillation cocktail (PerkinElmer, MA, USA) and counted in a Beckman LS-3801 scintillation counter. An enzyme-free sample was used as a blank to monitor the background radioactivity that was then subtracted from each sample. For pure enzyme, specific activity values are expressed as enzyme units (the amount of enzyme that produces 1 μmol of cystathionine/hour) per mg of CBS, and for plasma samples as units per μl plasma.
(§2) The pharmacokinetic (PK) parameters were calculated using a non-compartmental curve stripping model which resolves a curve into a series of exponential terms corresponding to the absorption, distribution and elimination phases occurring during the time course of the enzyme in the blood. The curve stripping approach assumes that the disposition phases of the drug follow apparent first-order kinetics, which is evidenced by the linearity in the terminal portion of a semi-log plot. These calculations were made using a modeling program called PK Solutions 2.0 (Summit Solutions, Montrose, CO) using the mean plasma enzyme activity for each route of administration. The bioavailability was calculated by dividing the area under the curve (AUC) for the SC or IP route by the AUC observed after IV administration.
(§3) In order to assess the pharmacokinetics of 20NHS PEG-htCBS C15S in rats, wild-type Sprague Dawley rats were injected with a single dose of 20NHS PEG-htCBS C15S through intra-vascular (IV) or sub-cutaneous (SC) routes. The design of a third (repeated dose) PK study (groups 7-9) was adjusted to allow extraction of data after the first dose and thus their combination with a single dose PK study (groups 1-6).
(§4) To further evaluate rats as a species for conducting long-term toxicity studies, the pharmacokinetics of 20NHS PEG-htCBS C15S was determined in three groups of Sprague Dawley rats receiving a total of 9 SC injections every 48 hours of either 4 mg/kg (low), 8 mg/kg (mid), or 24 mg/kg (high) 20NHS PEG-htCBS C15S. […] The experiment was conducted for a length of 24 days.

[4] = Pharmacokinetics of 20NHS PEG-htCBS C15S in rats; settings: for AUC/dose corrected to 80% bioavailability / Cmax/dose corrected to 80% bioavailability / tmax: SC
Experimental: as §1, §2, §3, §4

## 20NHS PEG-htCBS C15S: htCBS C15S PEGylated with ME-200GS PEG (20 kDa linear NHS ester-activated PEG)
[1]; 10 mg/kg IV
  E Half-life: 47.6 ± 14.6 h
[1]; mouse, in vivo
  average circulating time of a single enzyme molecule (MRT): 44 to 194 h
[1]; mouse, in vivo, iv, 10 mg/kg
  AUC(0-t) (obs area): 7431 ± 154 mU-hr/μL
  CL (obs area): 1346 ± 27.3 µL/h
  MRT (area): 52 ± 13 h
  cmax (obs): 371.6 ± 11.2 mU/μL
[1]; mouse, in vivo, sc
  AUC/dose: 612 (mU-h/mL)/(mg/kg)
  T1/2: 20 h
  absorption half-life: 5 to 12 h
  bioavailability in HO mice: 52-83%
  cmax/dose: 10 (mU/μL)/(mg/kg)
  tmax: 24 h
[1]; mouse, in vivo, sc, 5 mg/kg
  A Half-life: 5.3 ± 1.1 h
  AUC in mice: 3060 mU−h/mL
  CL (obs area): 1636 ± 86 µL/h
  E Half-life: 137 ± 95 h
  MRT (area): 194 ± 128 h
  cmax/dose: 10.3
[1]; mouse, in vivo, sc, 10 mg/kg
  A Half-life: 12.7 ± 0.6 h
  Bioavailability: 64.6%
  CL (obs area): 2113 ± 280 µL/h
  E Half-life: 17.5 ± 1.27 h
  MRT (area): 44.8 ± 1.7 h
  cmax (obs): 89.9 ± 10.2 mU/μL
  cmax/dose: 9.0
[1]; mouse, in vivo, sc, 15 mg/kg
  A Half-life: 11.9 ± 1.2 h
  Bioavailability: 51.6%
  CL (obs area): 2609 ± 72 µL/h
  E Half-life: 22.0 ± 1.7 h
  MRT (area): 49.0 ± 1.4 h
  cmax (obs): 104.2 ± 11.3 mU/μL
  cmax/dose: 6.9
  half-life determinations in the SC dose groups: 17.5 to 137 h
[2]
  BMD vs control groups: significantly higher BMD than both control groups
  osteoporosis and body composition (DEXA): completely prevented profound osteoporosis and improved body composition
[3]
  elimination half-life (T1/2): 44.5 h
[4]; 9 SC injections every 48 hours, 4, 8 or 24 mg/kg
  plasma CBS activity on repeated dosing: substantial decline in peak CBS activities
[4]; Rat/Female
  AUC/dose corrected to 80% bioavailability: 1233 (mU-h/mL)/(mg/kg)
  Cmax/dose corrected to 80% bioavailability: 16 (mU/μL)/(mg/kg)
  tmax: 29 h
[4]; Rat/Male
  AUC/dose corrected to 80% bioavailability: 1452 (mU-h/mL)/(mg/kg)
  Cmax/dose corrected to 80% bioavailability: 17 (mU/μL)/(mg/kg)
  tmax: 35 h
[4]; females, 4 mg/kg IV
  AUC0−t (obs area): 6165 mU-h/μl
  Bioavailability: 100%
  MRT (area): 45.5 h
  cp0: 186.2 mU/μl
[4]; females, 8 mg/kg SC
  AUC0−t (obs area): 4505 mU-h/μl
  Bioavailability: 36.5%
  MRT (area): 76.8 h
  cmax: 58.2 mU/μl
  tmax (obs): 24 h
[4]; females, 24 mg/kg SC
  AUC0−t (obs area): 13135 mU-h/μl
  Bioavailability: 35.5%
  MRT (area): 79.8 h
  cmax: 166.3 mU/μl
  tmax (obs): 48 h
[4]; male rats, across doses
  bioavailability (F %) after SC administration: 19-21% and 20%
[4]; males, 4 mg/kg IV
  AUC0−t (obs area): 7231 mU-h/μl
  Bioavailability: 100%
  MRT (area): 52.9 h
  cp0: 182.1 mU/μl
[4]; males, 8 mg/kg SC
  AUC0−t (obs area): 2703 mU-h/μl
  Bioavailability: 18.7%
  MRT (area): 65.6 h
  cmax: 32.7 mU/μl
  tmax (obs): 48 h
[4]; males, 24 mg/kg SC
  AUC0−t (obs area): 9269 mU-h/μl
  Bioavailability: 21.3%
  MRT (area): 66.1 h
  cmax: 110.0 mU/μl
  tmax (obs): 38 h
